Assay [1] concerns the target T1, hTNFR2 protein (coated on the microplate in the blocking ELISA) (human, UniProt P20333 23-257).
T1 construct: The construct coated in the ELISA is not described (it may or may not be the immunogen, Sino biological 10417-H03H)
T1 sequence (looked up): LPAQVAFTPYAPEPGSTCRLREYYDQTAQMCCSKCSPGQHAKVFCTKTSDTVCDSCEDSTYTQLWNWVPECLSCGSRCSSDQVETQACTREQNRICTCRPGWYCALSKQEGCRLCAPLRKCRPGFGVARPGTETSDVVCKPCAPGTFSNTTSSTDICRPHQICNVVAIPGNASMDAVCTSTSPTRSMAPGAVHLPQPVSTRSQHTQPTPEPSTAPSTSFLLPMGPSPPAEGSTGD
Put plainly: blocking ELISA: hTNFR2 coated on the plate, binding of biotinylated TNFα blocked by the antibody, Avidin-HRP. The protocol:
The ability of the hybridoma antibodies 3C4, 69B1, and 72G8 and the control antibody OPI to block the binding of human TNFα to hTNFR2 was assayed by ELISA.
The hTNFR2 protein was resuspended and dissolved to a concentration of 2 μg/mL with PBS, and a microplate was coated with the protein and incubated overnight. The plate was blocked with 5% BSA for 1 h, and a biotinylated antigen (Recombinant Biotinylated TNFα protein (ACRO)) was diluted to 3 μg/mL and added to the plate at 20 μL/well. The antibodies prepared as described above (3C4, 69B1, and 72G8) were each diluted in a gradient starting from the maximum concentration of 300 nM for a total of 8 or 12 dilution gradients. The diluted antibodies were added at 200 μL/well and incubated in PBS on ice for 30 min. The antigen-antibody mixture was incubated in a microplate for 90 min and washed three times with PBS, and the supernatant was discarded. 100 μL of Avidin-HRP (Invitrogen) diluted at a 1:5000 ratio was added to each well, incubated at room temperature for 30 min, and washed six times with PBS. A TMB chromogenic solution (solarbio) was added to the plate at 100 μL/well for color development for 1 min, and the reaction was stopped by adding a stop buffer (solarbio) at 100 μL/well. The plate was read on a microplate reader at OD₄₅₀ and OD₆₂₀.
In general terms: An ELISA detects its analyte on a solid surface through an enzyme-linked reagent.

Assay [2] concerns the target T2, human TNFR2 overexpressed on CHO-S cells (CHOS-hTNFR2) (human, UniProt P20333 23-461).
T2 construct: also called hTNFR2 CHO-S; human TNFR2 molecule overexpressed on CHO-S cells
T2 sequence: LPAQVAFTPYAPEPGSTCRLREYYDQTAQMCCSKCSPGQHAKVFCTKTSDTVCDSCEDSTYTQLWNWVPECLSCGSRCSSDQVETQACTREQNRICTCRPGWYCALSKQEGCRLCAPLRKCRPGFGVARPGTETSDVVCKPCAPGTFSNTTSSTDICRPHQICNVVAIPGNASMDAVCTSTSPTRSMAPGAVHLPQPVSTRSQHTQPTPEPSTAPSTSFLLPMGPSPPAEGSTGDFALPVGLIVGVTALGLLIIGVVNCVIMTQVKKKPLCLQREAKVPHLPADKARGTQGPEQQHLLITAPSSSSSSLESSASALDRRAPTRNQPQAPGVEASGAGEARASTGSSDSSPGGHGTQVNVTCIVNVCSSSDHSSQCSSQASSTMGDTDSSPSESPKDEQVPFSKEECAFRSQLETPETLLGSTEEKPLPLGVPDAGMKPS
The experiment in a line: flow cytometry on CHO-S cells overexpressing human TNFR2 (positive control), MFI-FL2-A; unit taken from the axis Conc log(nM). The protocol:
In the study, the binding of the chimeric antibodies of the present invention, after being diluted in a gradient, to a stable CHO-S cell strain overexpressing human TNFR2 on the surface was assayed by using a flow cytometer. cDNAs encoding human TNFR2 (SEQ ID NO: 60) and cynomolgus monkey TNFR2 (SEQ ID NO: 61) were cloned into pCH01.0 vectors (Invitrogen), which were transfected into CHO-S cells (Invitrogen) to produce CHO-S cells overexpressing human TNFR2 (CHOS-hTNFR2) and CHO-S cells overexpressing cynomolgus monkey TNFR2 (CHOS-cTNFR2).
CHOS-hTNFR2 cells or CHOS-cTNFR2 cells were counted and diluted to 2×10⁶ cells/mL, and added to a U-bottom 96-well plate at 100 μL/well. The mixture was centrifuged at 300 g for 5 min, and the cell medium was removed. The dilutions of the samples (the chimeric antibodies 3C4, 69B1, and 72G8 and the positive control antibody OPI) (the antibodies were subjected to a three-fold serial dilution in PBS from the maximum antibody concentration of 300 nM) were added to the U-plate, and the cells were resuspended at 100 μL/well and left to stand on ice for 30 min. The suspension was centrifuged at 400 g for 5 min, and the supernatant was removed. The cells were washed twice with PBS. The mixture was centrifuged at 300 g for 5 min, and PBS was removed. […]
(In general: A flow cytometer gives signals particle by particle.)

For orientation: EC50 means the concentration that produces a half-maximal response.

B1: positive control antibody OPI (humanized antibody SBT-002e in WO 2017083525) (antibody, V domains shown)
VH: QVTLKESGPALVKPTQTLTLTCTFSGFSLSTSGMGVGWIRQPPGKALEWLAHIWWDDDKFYNPSLKSRLTISKDTSKNQVVLTMTNMDPVDTATYYCARLTGTRYFDYWGQGTTVTVSS
VL: DVQMTQSPSSLSASVGDRVTITCKASQDINKFIAWYQQKPGKAPKLLIHYTSTLQPGIPSRFSGSGSGRDYTFTISSLQPEDIATYYCLQYGNLWTFGGGTKVEIK
notes: also called Benchmark OPI
As for B1, the “IC50 (read off the curve)” value in assay [1] was roughly 6 nM. Further, the midpoint of the response in assay [2], the EC50, lay at 2.62 nM.
